Measured values as given in patent US20200330553A1 (BRIGHAM AND WOMEN S HOSPITAL, published 2020).
Substitutions are numbered along the chain they refer to. Names and notes keep the numbering of the source.

B1: 6×His-sortilin ICD+TMD C783A (receptor)
chain: SAPHHHHHHNSVPIILAIVGLMLVTVVAGVLIVKKYVAGGRFLVHRYSVLQQHAEANGVDGVDALDTASHTNKSGYHDDSDEDLLE
B2: FLAG-sortilin ECD+TMD (receptor)
chain: SAPDYKDDDDKGEDEECGRVRDFVAKLANNTHQHVFDDLRGSVSLSWVGDSTGVILVLTTFHVPLVIMTFGQSKLYRSEDYGKNFKDITDLINNTFIRTEFGMAIGPENSGKVVLTAEVSGGSRGGRIFRSSDFAKNFVQTDLPFHPLTQMMYSPQNSDYLLALSTENGLWVSKNFGGKWEEIHKAVCLAKWGSDNTIFFTTYANGSCKADLGALELWRTSDLGKSFKTIGVKIYSFGLGGRFLFASVMADKDTTRRIHVSTDQGDTWSMAQLPSVGQEQFYSILAANDDMVFMHVDEPGDTGFGTIFTSDDRGIVYSKSLDRHLYTTTGGETDFTNVTSLRGVYITSVLSEDNSIQTMITFDQGGRWTHLRKPENSECDATAKNKNECSLHIHASYSISQKLNVPMAPLSEPNAVGIVIAHGSVGDAISVMVPDVYISDDGGYSWTKMLEGPHYYTILDSGGIIVAIEHSSRPINVIKFSTDEGQCWQTYTFTRDPIYFTGLASEPGARSMNISIWGFTESFLTSQWVSYTIDFKDILERNCEEKDYTIWLAHSTDPEDYEDGCILGYKEQFLRLRKSSMCQNGRDYVVTKQPSICLCSLEDFLCDFGYYRPENDSKCVEQPELKGHDLEFCLYGREEHLTTNGYRKIPGDKCQGGVNPVREVKDLKKKCTSNFLSPEKQNSKSNSVPIILAIVGLMLVTVVAGVLIV
notes: written as the form after propeptide cleavage; also called FLAG-sortilin ECD plus transmembrane domain
B3: FLAG-sortilin full-length (Full) (receptor)
chain: SAPDYKDDDDKGEDEECGRVRDFVAKLANNTHQHVFDDLRGSVSLSWVGDSTGVILVLTTFHVPLVIMTFGQSKLYRSEDYGKNFKDITDLINNTFIRTEFGMAIGPENSGKVVLTAEVSGGSRGGRIFRSSDFAKNFVQTDLPFHPLTQMMYSPQNSDYLLALSTENGLWVSKNFGGKWEEIHKAVCLAKWGSDNTIFFTTYANGSCKADLGALELWRTSDLGKSFKTIGVKIYSFGLGGRFLFASVMADKDTTRRIHVSTDQGDTWSMAQLPSVGQEQFYSILAANDDMVFMHVDEPGDTGFGTIFTSDDRGIVYSKSLDRHLYTTTGGETDFTNVTSLRGVYITSVLSEDNSIQTMITFDQGGRWTHLRKPENSECDATAKNKNECSLHIHASYSISQKLNVPMAPLSEPNAVGIVIAHGSVGDAISVMVPDVYISDDGGYSWTKMLEGPHYYTILDSGGIIVAIEHSSRPINVIKFSTDEGQCWQTYTFTRDPIYFTGLASEPGARSMNISIWGFTESFLTSQWVSYTIDFKDILERNCEEKDYTIWLAHSTDPEDYEDGCILGYKEQFLRLRKSSMCQNGRDYVVTKQPSICLCSLEDFLCDFGYYRPENDSKCVEQPELKGHDLEFCLYGREEHLTTNGYRKIPGDKCQGGVNPVREVKDLKKKCTSNFLSPEKQNSKSNSVPIILAIVGLMLVTVVAGVLIVKKYVCGGRFLVHRYSVLQQHAEANGVDGVDALDTASHTNKSGYHDDSDEDLLE
notes: signal peptide 1-33 is implied by that; Expressed in HEK293 cells; also called FLAG-sortilin WT; FLAG-sortilin wild-type
B4: FLAG-sortilin S316E (receptor)
chain: B3 chain with S247E
B5: 6×His-sortilin full-length (Full) (receptor)
chain: SAPHHHHHHGEDEECGRVRDFVAKLANNTHQHVFDDLRGSVSLSWVGDSTGVILVLTTFHVPLVIMTFGQSKLYRSEDYGKNFKDITDLINNTFIRTEFGMAIGPENSGKVVLTAEVSGGSRGGRIFRSSDFAKNFVQTDLPFHPLTQMMYSPQNSDYLLALSTENGLWVSKNFGGKWEEIHKAVCLAKWGSDNTIFFTTYANGSCKADLGALELWRTSDLGKSFKTIGVKIYSFGLGGRFLFASVMADKDTTRRIHVSTDQGDTWSMAQLPSVGQEQFYSILAANDDMVFMHVDEPGDTGFGTIFTSDDRGIVYSKSLDRHLYTTTGGETDFTNVTSLRGVYITSVLSEDNSIQTMITFDQGGRWTHLRKPENSECDATAKNKNECSLHIHASYSISQKLNVPMAPLSEPNAVGIVIAHGSVGDAISVMVPDVYISDDGGYSWTKMLEGPHYYTILDSGGIIVAIEHSSRPINVIKFSTDEGQCWQTYTFTRDPIYFTGLASEPGARSMNISIWGFTESFLTSQWVSYTIDFKDILERNCEEKDYTIWLAHSTDPEDYEDGCILGYKEQFLRLRKSSMCQNGRDYVVTKQPSICLCSLEDFLCDFGYYRPENDSKCVEQPELKGHDLEFCLYGREEHLTTNGYRKIPGDKCQGGVNPVREVKDLKKKCTSNFLSPEKQNSKSNSVPIILAIVGLMLVTVVAGVLIVKKYVCGGRFLVHRYSVLQQHAEANGVDGVDALDTASHTNKSGYHDDSDEDLLE
notes: 6×His inserted after Ser78-Ala79-Pro80; Written as the form after propeptide cleavage; also called 6×His-sortilin WT; 6×His-sortilin wild-type

Key:
[1] = biological target: the molecule itself; test: non-reducing western blot, HEK293 cells
[2] = biological target: the molecule itself; test: non-reducing western blot; BS3 cross-linking, HEK293 cells
Excerpt: In reducing western blotting, protein expressions of FLAG-sortilin Full, ECD+TMD and ICD+TMD were detected as bands of plausible molecular size (FIG. 2B). In non-reducing western blotting where disulfide bonds can be retained, FLAG-sortilin Full and ECD+TMD expressed a couple of bands (FIG. 2C). A band of 75-100 kDa was detected as monomers (FIG. 2C). Bands of approximately 200 kDa and higher molecular weight were detected as homodimers and multimers with intermolecular disulfide bonds (FIG. 2C). Next, FLAG-sortilin Full and ECD+TMD were cross-linked using water-soluble, non-cleavable cross-linker, BS3, in HEK293 cells. Both bands of homodimers and multimers appeared via the cross-linking (FIG. 2D). […] Dimerization of FLAG-sortilin ICD+TMD was not clearly detected in the non-reducing western blotting using whole cell lysate (FIG. 2C) potentially due to low protein expression levels of FLAG-sortilin ICD+TMD (FIGS. 2B, 2C). […] Therefore, it was determined whether FLAG-sortilin ICD+TMD can undergo degradation in proteasome and lysosome by adding proteasome inhibitor, MG-132, and lysosome inhibitor, chloroquine, to FLAG-sortilin ICD+TMD HEK293 cells, respectively. […] In non-reducing western blotting, bands with molecular size approximately twice as high as monomers of FLAG-sortilin ICD+TMD were detected (FIG. 2G). […]

[3] = biological target: B3; test: TR-FRET and HTRF on HEK293 cells, anti-FLAG(M2)-Cryptate and anti-6HIS-XL665
Experimental: TR-FRET and HTRF were performed as described (26). FLAG-sortilin Full HEK293 cells were harvested using dissociation solution (e.g., from Sigma Aldrich, Cat#C5914) 24 hours after transfection of 6×His-sortilin expression vector. An incubation under the circle rotator was performed at 4° C. with 1×10^6 cells/mL for TR-FRET and 2×10^6 cells/mL for HTRF containing 1 nmol/L Anti-FLAG® (M2)-Cryptate (Cisbio Bioassays, Cat#61FG2KLA, Lot#25A) and 3 nmol/L Anti-6HIS-XL665 (Cisbio Bioassays, Cat#61HISXLA, Lot#56A) in PBS supplemented with 25% FBS. For TR-FRET, cells were centrifuged at 1,000 rpm for 5 min to remove the antibodies, and resuspended in PBS, and applied into a 96-well white plate. For HTRF, cells were applied without removing the antibodies into a 96-well white plate. Then, the plate was read (excitation: 320 nm, emission: 620 nm (cutoff 570 nm), 665 nm (cutoff 630 nm), Delay […], Integration […]). The FRET signal was calculated as (the ratio of counts per seconds 665:620)×10,000, and % change of the FRET signal by 6×His-sortilin expression was expressed.

B1: no binding [1].

B2: binds [2].

B3: binds [2].

B4: binds [1].

B5: binds [3].
